According to patent US8586570B2, “Sox-based kinase sensor” (Massachusetts Institute of Technology, priority 2006, dated 2013):
Where two headings read alike, the source gives them in different places.

Assays:
[1] = Fluorescence increase, phosphopeptide vs unphosphorylated peptide at 485 nm; format: physicochemical; settings: phosphopeptide / unphosphorylated peptide intensity at 485 nm, generally 10 mM Mg2+
Description: (§1) Fluorescence experiments were performed on a Fluoromax 3 from Jobin Yvon. 5 nm emission and excitation slit widths were used. For all experiments, an excitation wavelength of 360 nm was used. Enzyme assays were performed by monitoring emission at 485 nm.
After peptide characterization, emission spectra were obtained for unphosphorylated and phosphorylated peptides under appropriate conditions. The spectra were generally acquired in the presence of 10 mM Mg^2+(although lower Mg^2+concentrations can and have been used as well) and either 0, 0.1 or 1 mM ATP in a preselected buffer (usually 20 mM HEPES, pH 7.4). Relying on the emission spectra the fold fluorescence differences were measured by dividing the fluorescence intensity of the phosphopeptide by the fluorescence intensity of its unphosphorylated counterpart at 485 nm. FIG. 2 depicts the fluorescence spectra of the phosphorylated and unphosphorylated peptides in the appropriate assay mixture: (A) emissions scans of PKCβI-1 (10 μM), 10 mM Mg(II), 3×; (B) emissions scans of PKCβI-1 (10 μM), 10 mM Mg(II), 0 mM ATP, 3×.; (C) fluorescence difference for PKCβI-1 (10 μM), 10 mM Mg(II), 3×; (D) fluorescence increase for PKCβI-1 (10 μM) at 10 mM Mg (II).

[2] = molecular target: T1, PKCα (Homo sapiens, UniProt P17252); experiment: Kinetic parameters of the peptides with PKCα (continuous fluorescence assay); format: biochemical; settings: for Km / Vmax: with PKCα
From the text: To solve for enzyme kinetic parameters for this reaction, determination of the initial rate of product formation from the increase in fluorescence intensity is necessary. With this sensor, a correction for the decrease in fluorescence intensity due to the starting material being consumed is needed to determine the rate of product formation from the initial slope. The fluorescence intensity at any given point can be determined from the following equation: I(t)=fSs(t)+fPP(t) (1) where I(t) is the fluorescence intensity, S(t) is the amount of substrate in μM, P(t) is the amount of product in μM, fS is the fluorescence intensity per μM of substrate, and fP is fluorescence intensity per μM of product. The amount of substrate and product at any given point are related by: S(t)+P(t)=S0 (2) where S0 is the initial amount of substrate. Substitution of (2) into (1) followed by rearrangement, yields:
[formula] The initial slope of the reaction, dI(t)/dt, was measured within the first 5% of substrate turnover. The constants fP and fS were calculated from the slope of a line of fluorescence intensity versus concentration of P and S, respectively. A linear fit of a Hanes plot ([S]/V vs. […]) was used to find Km and Vmax.
For in vitro applications, the concentration of kinase can range from about 0.5 nM to about 1 μM, typically not more than about 500 nM, and preferably not more than about 250 nM. The concentrations of sensor can vary, but usually ranges between about 0.01 μM to 0.1 mM. Adenosine 5′-triphosphate (ATP) is the preferred source of phosphate, in stock solutions of about 10-100 mM. Because most kinases have Km values for ATP in the range of about 10-150 μM, saturating concentrations of ATP are used to arrive at values of Km and Vmax for the substrates. For in vivo applications, when the sensor is internalized into a cell, sufficient kinases, Mg^2+ and phosphate sources exist in the cytosol. For in vivo sensing, a cellular internalization sequence can be included in the sensor design. Suitable cellular internalization sequences include Penetratins, HIV-Tat domains and poly-arginine sequences (Lindgren, M. et al. Trends Pharmacol. Sci. 2000, 21, 99-103; Wadia, J. S. et al. Curr Opin. Biotech. 2002, 13, 52-56; Carrigan, C. N. Analyt. Biochem. 2005, 341, 290-298).
For applications in which the kinase is dependent on cofactors, a source of cofactor is also included in the sample. For example, for PKC, sources of Ca^2+, phospholipid and diacylglycerol are needed.
as §1

[3] = molecular target: T1, PKCα; settings: optimal PKCα peptide substrate selected from the literature; cited from earlier work
[4] = system: PKC isozymes present in cells; experiment: Use of sensor in cell lysates
From the text: In comparison, the chemosensors with the extended recognition domain as disclosed in the present invention for PKCα, PKCα-S9 and PKCα-S10, also have good biophysical properties (Table IV).

| selectivity for PKCα ([2]; as determined by kinetic parameters, compared with PKCα-S1) | Km [2] | Vmax [2] | Substance | Fluorescence Increase [1] | Km [3] | reactivity in cell lysates [4] |
| --- | --- | --- | --- | --- | --- | --- |
| much more selective for PKCα | 0.093 ± 0.017 µM | 1.8 ± 0.12 µmol/min/mg | Ac-R R R-C(Sox)-G-(p)S F R R K A-NH2 [PKCα-S9(P9)] | 3.5 x | – | – |
| – | – | – | RRRKGS*FRRKA (RRRKGSFRRKA) [optimal PKCα peptide substrate selected from the literature] | – | 3.8 µM | – |
| – | 8.6 ± 2.9 µM | 5.9 ± 1.9 µmol/min/mg | Ac-Sox-P-G-(p)S F R R R-NH2 [PKCα-S1(P1), reference compound] | 5.7 x | – | reactive toward many of the PKC isozymes |
